Laboratory results reported in paper PMC10018351.

Experiments:
hnRNPU [1] = biological target: hnRNPU (UniProt Q00839); test: anti-Flag co-IP, hnRNPU immunoblot; conditions: reference: wild type; sites S83,S85
hnRNPU [2] = biological target: hnRNPU (UniProt Q00839); test: Flag-hnRNPU co-IP, HA-FOXN3 immunoblot; conditions: reference: WT FOXN3 with HA-p38; sites S83,S85

Substance	binding against the reference (hnRNPU [1])	binding against the reference (hnRNPU [2])
FOXN3 (from UniProt O00409) S83,85A	stronger	
FOXN3 (from UniProt O00409) S83,85A with HA-p38		stronger
